Experimental data as given in patent US20050282739A1 (PALATIN TECHNOLOGIES, published 2005).
Square brackets hold non-standard residues; d marks the D form. Ends that are not written are not given here. Nle = CCCC[C@H](N)C(=O)O

Key:
[1] = target: T1, melanocortin-1 receptor (MC1-R) of B-16 mouse melanoma cells (mouse, UniProt Q01727 1-315); experiment: 125I-NDP-α-MSH competition, B-16 membranes
T1 construct: whole, on cells; membranes prepared from the cells were used; also called Melanocortin Receptor 1
Method: (§1) The competitive inhibition binding assay was conducted using membranes prepared from hMC3-R, hMC4-R, hMC5-R, and B-16 mouse melanoma cells (containing MC1-R) using 0.4 nM ¹²⁵I-NDP-alpha-MSH (New England Nuclear, Boston, Mass., USA) in 50 mM HEPES buffer containing 1 mM MgCl₂, 2 mM CaCl₂, and 5 mM KCl, at pH 7.2. […] Incubation was for 90 minutes at room temperature, after which the assay mixture was filtered and the membranes washed three times with ice cold buffer. The filter was dried and counted in a gamma counter for remaining radioactivity bound to the membranes. 100% specific binding was defined as the difference in radioactivity (cpm) bound to cell membranes in the absence and presence of 1 μM α-MSH. […] Each assay was conducted in triplicate and the actual mean valves are described.
(§2) The methods and assays set forth in Example 1 were followed.

[2] = target: T2, human melanocortin-3 receptor (hMC3-R) (human, UniProt P41968 1-323); experiment: 125I-NDP-α-MSH competition, hMC3-R membranes
T2 construct: whole, on cells; membranes prepared from hMC3-R cells were used; also called Melanocortin Receptor 3
Method: as §1, §2

[3] = target: T3, human melanocortin-4 receptor (hMC4-R) (human, UniProt P32245 1-332); experiment: 125I-NDP-α-MSH competition, hMC4-R membranes
T3 construct: whole, on cells; membranes prepared from hMC4-R cells were used; also called Melanocortin Receptor 4
Method: as §1, §2

[4] = target: T4, human melanocortin-5 receptor (hMC5-R) (human, UniProt P33032 1-325); experiment: 125I-NDP-α-MSH competition, hMC5-R membranes
T4 construct: whole, on cells; membranes prepared from hMC5-R cells were used; also called Melanocortin Receptor 5
Method: as §1, §2

T1 sequence (Q01727 whole entry): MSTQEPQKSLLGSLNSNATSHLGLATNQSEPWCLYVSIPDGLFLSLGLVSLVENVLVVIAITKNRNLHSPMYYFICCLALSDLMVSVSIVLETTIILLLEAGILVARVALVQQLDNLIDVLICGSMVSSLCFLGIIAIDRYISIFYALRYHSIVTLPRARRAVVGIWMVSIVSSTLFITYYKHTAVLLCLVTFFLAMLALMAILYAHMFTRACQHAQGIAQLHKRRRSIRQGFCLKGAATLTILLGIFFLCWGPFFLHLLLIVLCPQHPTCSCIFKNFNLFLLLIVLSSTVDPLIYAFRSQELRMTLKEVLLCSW
T2 sequence (P41968 whole entry): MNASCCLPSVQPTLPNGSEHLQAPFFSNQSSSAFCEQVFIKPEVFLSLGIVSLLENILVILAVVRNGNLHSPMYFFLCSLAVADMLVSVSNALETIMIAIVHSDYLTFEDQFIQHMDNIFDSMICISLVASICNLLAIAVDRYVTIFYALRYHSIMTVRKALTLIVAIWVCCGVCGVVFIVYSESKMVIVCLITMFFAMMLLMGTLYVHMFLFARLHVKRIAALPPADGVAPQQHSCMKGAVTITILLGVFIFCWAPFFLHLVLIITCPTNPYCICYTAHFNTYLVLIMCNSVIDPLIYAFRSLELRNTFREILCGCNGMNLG
T3 sequence (P32245 whole entry): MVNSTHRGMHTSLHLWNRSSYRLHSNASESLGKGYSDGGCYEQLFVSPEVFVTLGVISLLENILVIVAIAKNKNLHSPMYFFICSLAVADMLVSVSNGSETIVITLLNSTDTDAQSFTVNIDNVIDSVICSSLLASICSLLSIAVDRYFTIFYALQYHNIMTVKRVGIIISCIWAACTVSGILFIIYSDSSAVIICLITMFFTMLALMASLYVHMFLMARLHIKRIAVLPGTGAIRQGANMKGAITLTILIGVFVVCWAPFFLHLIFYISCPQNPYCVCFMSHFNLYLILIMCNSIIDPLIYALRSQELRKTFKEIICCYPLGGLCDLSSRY
T4 sequence (P33032 whole entry): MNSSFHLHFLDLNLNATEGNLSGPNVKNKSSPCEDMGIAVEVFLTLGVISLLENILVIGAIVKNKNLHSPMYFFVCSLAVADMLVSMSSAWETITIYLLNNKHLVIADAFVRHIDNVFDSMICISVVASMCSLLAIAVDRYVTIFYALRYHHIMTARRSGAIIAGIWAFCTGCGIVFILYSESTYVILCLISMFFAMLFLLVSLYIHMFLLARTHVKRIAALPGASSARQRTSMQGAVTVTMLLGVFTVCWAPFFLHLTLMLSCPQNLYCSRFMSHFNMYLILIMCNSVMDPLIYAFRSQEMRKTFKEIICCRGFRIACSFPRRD

Row | % Inhibition at 1 µM [1] [%] | % Inhibition at 1 µM [2] [%] | % Inhibition at 1 µM [3] [%] | % Inhibition at 1 µM [4] [%] | Binder
1 | 83 | 85 | 58 | 43 | YVXGHFRWDRF (Nle 3; C-terminal amide, not complexed to Re) [[Nle3]-γ-MSH parent polypeptide Tyr-Val-Nle-Gly-His-Phe-Arg-Trp-Asp-Arg-Phe-NH2]
2 | 13 | 33 |  | 45 | YV[Nle]GCHFRWDRF-NH2 (also: oxorhenium(V) N3S1 chelate: C5 SG + backbone N of X3, G4, C5, bridge at 5 via Re(V)=O, other end not in the chain) [metallopeptide 4-8]
3 | 91 | 41 | 25 | 38 | Ac-SYS[Nle]EHFRWGK[dC]PV-NH2 (also: oxorhenium(V) N3S1 chelate at D-Cys12) [metallopeptide 2-3]
4 |  |  |  | 24 | YV[Nle]GHFCRWDRF-NH2 (also: oxorhenium(V) N3S1 chelate: C7 SG + backbone N of H5, F6, C7, bridge at 7 via Re(V)=O, other end not in the chain) [metallopeptide 4-6]
5 | 92 | 13 | 35 | 2 | Ac-SYS[Nle]E[dC]HFRWGKPV-NH2 (also: oxorhenium(V) N3S1 chelate at D-Cys 6) [metallopeptide 2-9]
6 | 97 | 72 | 46 | 53 | SYSXEHFRWGKGVC (N-terminal acetyl; Nle 4 (X in letters); D-Cys 14; C-terminal amide; Re complexed at D-Cys 14) [metallopeptide 2-1]
7 | 52 | 20 | 39 | 47 | YV[Nle]GHFRWCDRF-NH2 (also: oxorhenium(V) N3S1 chelate: C9 SG + backbone N of R7, W8, C9, bridge at 9 via Re(V)=O, other end not in the chain) [metallopeptide 4-4]
8 | 56 | 69 | 36 | 41 | YVXGHFRWDRFC (not fully specified; Nle 3; C-terminal amide; Re complexed at Cys 12) [metallopeptide 4-1]
9 | 89 | 87 | 74 | 68 | YV[Nle]GHFRCWDRF-NH2 (also: oxorhenium(V) N3S1 chelate: C8 SG + backbone N of F6, R7, C8, bridge at 8 via Re(V)=O, other end not in the chain) [metallopeptide 4-5]
10 | 75 | 49 | 23 | 51 | YV[Nle]GHFRWDRCF-NH2 (also: oxorhenium(V) N3S1 chelate: C11 SG + backbone N of D9, R10, C11, bridge at 11 via Re(V)=O, other end not in the chain) [metallopeptide 4-2]
11 | 95 |  | 37 | 0 | Ac-SYS[dC][Nle]EHFRWGKPV-NH2 (also: oxorhenium(V) N3S1 chelate at D-Cys4) [metallopeptide 2-11]
12 |  | 17 |  | 15 | YV[Nle]GHCFRWDRF-NH2 (also: oxorhenium(V) N3S1 chelate: C6 SG + backbone N of G4, H5, C6, bridge at 6 via Re(V)=O, other end not in the chain) [metallopeptide 4-7]
13 | 93 | 26 | 28 | 32 | Ac-SYS[Nle]EHFRWGKG[dC]V-NH2 (also: oxorhenium(V) N3S1 chelate at D-Cys13) [metallopeptide 2-2]
14 | 91 | 27 | 40 | 21 | Ac-SYS[Nle]EHFRWG[dC]KPV-NH2 (also: oxorhenium(V) N3S1 chelate at D-Cys11) [metallopeptide 2-4]
15 | 65 | 0 | 18 | 0 | Ac-SYS[Nle][dC]EHFRWGKPV-NH2 (also: oxorhenium(V) N3S1 chelate at D-Cys5) [metallopeptide 2-10]
16 | 43 | 0 | 4 | 0 | Ac-SYS[Nle]EHFRW[dC]GKPV-NH2 (also: oxorhenium(V) N3S1 chelate at D-Cys10) [metallopeptide 2-5]
17 | 28 | 10 |  | 17 | YVC[Nle]GHFRWDRF-NH2 (bridge (positions not given here); not fully specified (bridges); printed as Tyr-Val-Cys-Nle-Gly-His-Phe-Arg-Trp-Asp-Arg-Phe-NH2.; also: oxorhenium(V) N3S1 complex) [metallopeptide 4-10]
18 | 69 | 0 | 25 | 29 | Ac-SYS[Nle]EH[dC]FRWGKPV-NH2 (also: oxorhenium(V) N3S1 chelate at D-Cys 7) [metallopeptide 2-8]
19 | 44 | 18 | 23 | 65 | YV[Nle]GHFRWDCRF-NH2 (also: oxorhenium(V) N3S1 chelate: C10 SG + backbone N of W8, D9, C10, bridge at 10 via Re(V)=O, other end not in the chain) [metallopeptide 4-3]
20 | 97 | 21 | 47 | 17 | Ac-SY[dC]S[Nle]EHFRWGKPV-NH2 (also: oxorhenium(V) N3S1 chelate at D-Cys3) [metallopeptide 2-12]
21 |  | 19 |  | 43 | YV[Nle]CGHFRWDRF-NH2 (also: oxorhenium(V) N3S1 chelate: C4 SG + backbone N of V2, X3, C4, bridge at 4 via Re(V)=O, other end not in the chain) [metallopeptide 4-9]
